Source: article PMC6100598, “Characterization of Small Molecules Inhibiting the Pro-Angiogenic Activity of the Zinc Finger Transcription Factor Vezf1” (Molecules : A Journal of Synthetic Chemistry and Natural …, 2018)
“And” between values parts separate entries of the source, which are not always exact repeats. Equal entries are not always repeated.

How the values were obtained:
Vezf1 (His-Vezf1) = target: T1, Vezf1 (His-Vezf1) (UniProt Q5SXC4); assay: EMSA; details: 20 mM Hepes pH 7.5, 10 mM MgCl2, 50 mM NaCl, 1 mM EDTA, 5 ng/uL poly dA.dT, 10 min at room temperature, 5% acrylamide gel in 0.5x TBE
T1 sequence: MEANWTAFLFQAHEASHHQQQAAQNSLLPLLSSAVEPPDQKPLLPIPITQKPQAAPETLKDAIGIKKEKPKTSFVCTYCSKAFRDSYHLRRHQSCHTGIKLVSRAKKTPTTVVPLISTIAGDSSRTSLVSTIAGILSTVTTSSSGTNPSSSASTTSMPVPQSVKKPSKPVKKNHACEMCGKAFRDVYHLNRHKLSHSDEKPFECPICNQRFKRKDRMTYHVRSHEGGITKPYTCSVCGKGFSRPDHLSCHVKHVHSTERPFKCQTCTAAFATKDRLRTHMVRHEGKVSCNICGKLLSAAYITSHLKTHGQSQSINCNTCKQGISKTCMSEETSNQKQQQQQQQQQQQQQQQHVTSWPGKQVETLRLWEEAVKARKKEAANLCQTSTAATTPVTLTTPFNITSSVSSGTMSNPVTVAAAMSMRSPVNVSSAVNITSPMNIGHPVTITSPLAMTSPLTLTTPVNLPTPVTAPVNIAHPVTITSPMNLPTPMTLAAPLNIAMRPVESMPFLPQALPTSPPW

[1] = target: T2, Vezf1 (recombinant His-Vezf1) (Mus musculus, UniProt Q5SXC4); assay: EMSA, single dose; details: 640 nM Vezf1, 25 nM 32P-DNA, 10 min pre-incubation; residual DNA binding, not per cent inhibition; value without compound not given
T2 construct: N-terminal His6 tag (pQE10), kept; E. coli XLBlue (MRF, T7); Ni-NTA; residue borders not given; native protein about 65 kDa, six C2H2 zinc fingers
T2 sequence (Q5SXC4 1-518): T1 sequence

[2] = target: T2, Vezf1 (recombinant His-Vezf1); assay: EMSA, inhibition of Vezf1 binding to […]-labelled DNA; details: 1 μM or 640 nM (Figure 5C) Vezf1, 25 nM 32P-DNA (HS4-FPIII site), 10 min pre-incubation, 10 mM MgCl2, Hepes 7.5, room temperature; also called effective blocking concentration

Work on “AGGCGCGCCCCGGTCCGGCGCTCCCCCCGCATCCCCGAGCCGGGGCGCGCCT (double strand) [HS4-FPIII Vezf1 site duplex]” yielded a binding signal (Vezf1 (His-Vezf1); 500 uM NSC1012, 640 nM Vezf1) of 7.38 % DNA bound, a binding signal (Vezf1 (His-Vezf1); 500 uM T4 (503-1-83), 640 nM Vezf1, T4 effective at 20 uM (IC50)) of 5.94 % DNA bound and a binding signal (Vezf1 (His-Vezf1); 500 uM T6 (503-1-71 in text; 501-1-71 in Fig 5B legend), 640 nM Vezf1) of 5.92 % DNA bound. For the same compound, the binding signal (Vezf1 (His-Vezf1)) was 22.6 % DNA bound and 38.5 % DNA bound and the Kd (Vezf1 (His-Vezf1); no inhibitor, 25 nM DNA, 50-1000 nM protein) was 640 nM.

NC(=O)c1nnn(Cc2cc(Cl)c(C(=O)c3ccc(Cl)cc3)c(Cl)c2)c1N [compound 3, NSC609974] was tested, and the “% DNA Bound in EMSA (500 μM)” value [1] was 38.45%.

For Cc1c(S(=O)(=O)O)ccc(N=Nc2c(O)c(C(=O)O)cc3ccccc23)c1Cl [compound 2, NSC16087], the “% DNA Bound in EMSA (500 μM)” value [1] was 22.56%.

For O=C(O)c1ccccc1NC(c1ccccc1)c1ccc2cccnc2c1O (centres unmarked) [compound 1, NSC1012], the “Activity Concentration” value [2] was ~ 500 μM.
